Results: article doi:10.1101/2024.12.17.628619 (bioRxiv, 2024)
Numbering of substitutions follows the chain as printed. Names and notes keep the numbering of the source.

B1: MBP-AMBRA1^WD40 (residues M1-N204 directly fused to S853-G1044), wild type (domain or fragment, human, UniProt Q9C0C7 1-204, looked up)
chain: MKVVPEKNAVRILWGRERGARAMGAQRLLQELVEDKTRWMKWEGKRVELPDSPRSTFLLAFSPDRTLLASTHVNHNIYITEVKTGKCVHSLIGHRRTPWCVTFHPTISGLIASGCLDGEVRIWDLHGGSESWFTDSNNAIASLAFHPTAQLLLIATANEIHFWDWSRREPFAVVKTASEMERVRLVRFDPLGHYLLTAIVNPSNSNIANTTYRLQWWDFTKFDLPEISNASVNVLVQNCKIYNDASCDISADGQLLAAFIPSSQRGFPDEGILAVYSLAPHNLGEMLYTKRFGPNAISVSLSPMGRYVMVGLASRRILLHPSTEHMVAQVFRLQQAHGGETSMRRVFNVLYPMPADQRRHVSINSARWLPEPGLGLAYGTNKGDLVICRPEALNSG
B2: MBP-AMBRA1^WD40 W99R (domain or fragment, human, UniProt Q9C0C7 1-204, looked up)
chain: B1 chain with W99R
B3: MBP-AMBRA1^WD40 H75A/R96A (domain or fragment, human, UniProt Q9C0C7 1-204, looked up)
chain: B1 chain with H75A, R96A
B4: MBP-AMBRA1^WD40 F57A (domain or fragment, human, UniProt Q9C0C7 1-204, looked up)
chain: B1 chain with F57A

biological target: His6-DDB1 (human, UniProt Q16531 1-1140); experiment: SEC + other: negative stain EM
Sequence (Q16531 whole entry): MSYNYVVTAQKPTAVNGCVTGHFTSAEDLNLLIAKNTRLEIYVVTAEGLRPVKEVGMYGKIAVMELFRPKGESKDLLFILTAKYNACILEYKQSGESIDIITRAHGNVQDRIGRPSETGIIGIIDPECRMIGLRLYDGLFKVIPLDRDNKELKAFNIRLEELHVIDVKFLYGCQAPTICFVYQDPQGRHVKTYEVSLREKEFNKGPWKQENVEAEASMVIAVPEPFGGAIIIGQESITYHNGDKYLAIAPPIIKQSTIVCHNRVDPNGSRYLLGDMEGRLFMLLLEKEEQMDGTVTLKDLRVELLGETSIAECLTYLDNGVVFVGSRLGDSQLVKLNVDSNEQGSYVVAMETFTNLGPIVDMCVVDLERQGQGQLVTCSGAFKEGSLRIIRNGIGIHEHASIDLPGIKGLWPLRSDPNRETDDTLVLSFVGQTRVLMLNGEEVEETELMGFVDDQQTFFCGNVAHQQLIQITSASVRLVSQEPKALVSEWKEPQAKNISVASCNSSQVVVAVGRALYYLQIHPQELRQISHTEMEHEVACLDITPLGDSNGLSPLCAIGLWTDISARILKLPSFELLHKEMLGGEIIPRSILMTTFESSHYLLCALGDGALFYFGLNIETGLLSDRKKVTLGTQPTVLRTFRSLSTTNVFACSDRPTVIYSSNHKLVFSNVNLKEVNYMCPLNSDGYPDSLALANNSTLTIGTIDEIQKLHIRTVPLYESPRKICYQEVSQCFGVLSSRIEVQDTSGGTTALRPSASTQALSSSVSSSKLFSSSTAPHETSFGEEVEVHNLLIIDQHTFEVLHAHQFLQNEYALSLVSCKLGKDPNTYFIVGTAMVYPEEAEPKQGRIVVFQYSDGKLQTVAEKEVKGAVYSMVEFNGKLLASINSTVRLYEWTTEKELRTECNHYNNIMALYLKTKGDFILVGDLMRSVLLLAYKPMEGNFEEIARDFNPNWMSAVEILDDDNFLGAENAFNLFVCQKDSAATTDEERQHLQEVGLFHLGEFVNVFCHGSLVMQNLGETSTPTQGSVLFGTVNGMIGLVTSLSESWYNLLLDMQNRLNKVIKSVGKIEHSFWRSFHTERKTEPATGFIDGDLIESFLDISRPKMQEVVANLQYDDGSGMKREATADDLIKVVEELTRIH

binding result	Binder
binds	B1
binds	B2
binds	B3
binds	B4
